Test in all cases: cell_activity
Data set [1] concerns the target c-Maf (Mus musculus) (UniProt P54843). As to conditions: HeLa; +/-12.1.
The target in data set [2] is MafA (mouse L-Maf) (Mus musculus) (UniProt Q8CF90). The conditions noted are these: HeLa; +/-2.8.
In data set [3] the target is MafB (Mus musculus) (UniProt P54841). The conditions noted are these: HeLa; +/-10.4.
MafB (Mus musculus), sequence (P54841 whole entry): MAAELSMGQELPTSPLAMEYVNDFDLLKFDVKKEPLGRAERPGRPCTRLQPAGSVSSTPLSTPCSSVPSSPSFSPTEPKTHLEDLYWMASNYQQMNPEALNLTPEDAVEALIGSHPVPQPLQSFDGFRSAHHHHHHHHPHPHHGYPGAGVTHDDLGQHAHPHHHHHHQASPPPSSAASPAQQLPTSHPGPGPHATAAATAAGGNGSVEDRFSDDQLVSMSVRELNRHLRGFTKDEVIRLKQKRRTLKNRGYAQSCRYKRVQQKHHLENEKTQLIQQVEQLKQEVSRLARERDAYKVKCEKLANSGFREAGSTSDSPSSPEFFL

c-Maf (Mus musculus), sequence (P54843 whole entry): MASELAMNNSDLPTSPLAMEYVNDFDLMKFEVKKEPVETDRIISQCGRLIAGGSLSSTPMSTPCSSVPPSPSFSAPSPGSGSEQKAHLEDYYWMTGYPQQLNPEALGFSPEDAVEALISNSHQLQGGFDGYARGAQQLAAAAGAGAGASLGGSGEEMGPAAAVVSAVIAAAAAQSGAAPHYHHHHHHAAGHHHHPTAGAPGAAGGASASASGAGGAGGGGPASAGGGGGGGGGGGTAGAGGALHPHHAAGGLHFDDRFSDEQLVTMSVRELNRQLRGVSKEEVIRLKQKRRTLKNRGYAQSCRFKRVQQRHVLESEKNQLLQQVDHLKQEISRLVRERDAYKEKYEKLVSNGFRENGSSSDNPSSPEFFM
MafA (mouse L-Maf) (Mus musculus), sequence (Q8CF90 whole entry): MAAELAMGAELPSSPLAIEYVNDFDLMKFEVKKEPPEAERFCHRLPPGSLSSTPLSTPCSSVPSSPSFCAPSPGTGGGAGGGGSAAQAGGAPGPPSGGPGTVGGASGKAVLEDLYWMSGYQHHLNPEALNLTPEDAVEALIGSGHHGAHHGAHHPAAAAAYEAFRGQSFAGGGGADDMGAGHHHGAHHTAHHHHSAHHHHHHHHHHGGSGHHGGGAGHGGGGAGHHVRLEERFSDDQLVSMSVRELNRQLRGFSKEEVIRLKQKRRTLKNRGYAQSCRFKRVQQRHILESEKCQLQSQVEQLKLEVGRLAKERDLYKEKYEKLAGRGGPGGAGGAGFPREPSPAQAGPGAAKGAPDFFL

Consider “rat insulin II promoter -238/+2 (-238 WT LUC)”, for which the figures for the activity (relative luciferase (printed as %)) in data set [1], in data set [2] and in data set [3] were 28, 13.2 and 23.9, respectively.

The record behind these values is US20050118148.
